Test results: the supplement of paper PMC9112550, “Optimization of the antimicrobial peptide Bac7 by deep mutational scanning” (BMC Biology, 2022)

Test system: Escherichia coli TOP10
Test: shrunken log2 fold change of peptide-encoding DNA abundance (4.5 h post-induction vs induction); higher = less antimicrobial activity (less host growth inhibition)
Conditions: time post-induction: 4.5 h; library: site-saturation at positions 5, 18, 19, 20
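Note: peptides expressed intracellularly from a pBAD plasmid library in pooled LB shake-flask culture, induced with 0.3% L-arabinose, DNA abundance read by NGS, three biological replicates, DESeq2 with apeglm shrinkage.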

| Sequence | shrunken log2 fold change |
| --- | --- |
| RRIRKRPPRLPRPRPRPAQGPRP | 1.39 |
| RRIRPRPPRLPRPRPRPYYEPRP | -0.321 |
| RRIRARPPRLPRPRPRPKLMPRP | 0.357 |
| RRIRERPPRLPRPRPRPKSYPRP | -0.0792 |
| RRIRWRPPRLPRPRPRPVHCPRP | -0.162 |
| RRIRDRPPRLPRPRPRPKYLPRP | -0.131 |
| RRIRLRPPRLPRPRPRPQFMPRP | -0.462 |
| RRIRARPPRLPRPRPRPAIEPRP | 0.396 |
| RRIRVRPPRLPRPRPRPMIHPRP | -0.465 |
| RRIRCRPPRLPRPRPRPWPVPRP | 0.215 |
| RRIRKRPPRLPRPRPRPWGAPRP | 0.449 |
| RRIRHRPPRLPRPRPRPHAVPRP | -0.0488 |
| RRIRKRPPRLPRPRPRPICIPRP | 0.163 |
| RRIRKRPPRLPRPRPRPRRFPRP | 0.39 |
| RRIRMRPPRLPRPRPRPSTVPRP | -0.0552 |
| RRIRERPPRLPRPRPRPWQLPRP | -0.072 |
| RRIRARPPRLPRPRPRPMCKPRP | 0.0809 |
| RRIRERPPRLPRPRPRPPWTPRP | -0.0555 |
| RRIRPRPPRLPRPRPRPGTCPRP | 0.182 |
| RRIRWRPPRLPRPRPRPSAEPRP | 1.14 |
| RRIRPRPPRLPRPRPRPQAPPRP | -0.0721 |
| RRIRDRPPRLPRPRPRPGQHPRP | -0.121 |
| RRIRYRPPRLPRPRPRPSCCPRP | -0.472 |
| RRIRNRPPRLPRPRPRPHKLPRP | -0.411 |
| RRIRTRPPRLPRPRPRPNTPPRP | -0.17 |

| Sequence | shrunken log2 fold change |
| --- | --- |
| RRIRIRPPRLPRPRPRPIWPPRP | 0.155 |
| RRIRCRPPRLPRPRPRPWGVPRP | 0.122 |
| RRIRIRPPRLPRPRPRPRHLPRP | -0.458 |
| RRIRERPPRLPRPRPRPTNLPRP | -0.0315 |
| RRIRGRPPRLPRPRPRPRLAPRP | 1.35 |
| RRIRFRPPRLPRPRPRPQLQPRP | 0.0569 |
| RRIRLRPPRLPRPRPRPSKFPRP | -0.276 |
| RRIRPRPPRLPRPRPRPQCNPRP | -0.0419 |
| RRIRWRPPRLPRPRPRPMGMPRP | 0.403 |
| RRIRGRPPRLPRPRPRPDEGPRP | -0.001 |
| RRIRCRPPRLPRPRPRPTSIPRP | -0.343 |
| RRIRGRPPRLPRPRPRPAVGPRP | 1.77 |
| RRIRHRPPRLPRPRPRPHMGPRP | -0.238 |
| RRIRVRPPRLPRPRPRPPPFPRP | 0.375 |
| RRIRHRPPRLPRPRPRPLYHPRP | -0.198 |
| RRIRMRPPRLPRPRPRPGKKPRP | 0.532 |
| RRIRLRPPRLPRPRPRPPDVPRP | -0.0115 |
| RRIRYRPPRLPRPRPRPCIYPRP | -0.207 |
| RRIRFRPPRLPRPRPRPHDIPRP | -0.0788 |
| RRIRNRPPRLPRPRPRPNICPRP | -0.0714 |
| RRIRERPPRLPRPRPRPCCFPRP | -0.248 |
| RRIRARPPRLPRPRPRPNKFPRP | -0.3 |
| RRIRSRPPRLPRPRPRPVITPRP | -0.0353 |
| RRIRFRPPRLPRPRPRPIKVPRP | -0.379 |
| RRIRHRPPRLPRPRPRPAYAPRP | -0.182 |

| Sequence | shrunken log2 fold change |
| --- | --- |
| RRIRIRPPRLPRPRPRPQIEPRP | -0.0116 |
| RRIRRRPPRLPRPRPRPSHVPRP | 0.151 |
| RRIRFRPPRLPRPRPRPTREPRP | 0.599 |
| RRIRSRPPRLPRPRPRPHVYPRP | -0.355 |
| RRIRFRPPRLPRPRPRPTTLPRP | -0.0787 |
| RRIRPRPPRLPRPRPRPSLQPRP | 0.0128 |
| RRIRGRPPRLPRPRPRPGICPRP | 0.808 |
| RRIRQRPPRLPRPRPRPYSRPRP | -0.0567 |
| RRIRIRPPRLPRPRPRPHIFPRP | -0.311 |
| RRIRKRPPRLPRPRPRPEGCPRP | 0.959 |
| RRIRSRPPRLPRPRPRPAHRPRP | -0.0259 |
| RRIRRRPPRLPRPRPRPCTPPRP | -0.0236 |
| RRIRHRPPRLPRPRPRPMREPRP | 0.237 |
| RRIRLRPPRLPRPRPRPVQQPRP | 0.053 |
| RRIRSRPPRLPRPRPRPSSNPRP | -0.872 |
| RRIRRRPPRLPRPRPRPVYDPRP | -0.331 |
| RRIRTRPPRLPRPRPRPPFNPRP | 0.0539 |
| RRIRWRPPRLPRPRPRPTKSPRP | 0.176 |
| RRIRFRPPRLPRPRPRPNCQPRP | -0.508 |
| RRIRDRPPRLPRPRPRPHQDPRP | 0.00101 |
| RRIRPRPPRLPRPRPRPDRCPRP | 0.584 |
| RRIRFRPPRLPRPRPRPRICPRP | 0.0102 |
| RRIRSRPPRLPRPRPRPCTVPRP | -0.253 |
| RRIRCRPPRLPRPRPRPMCVPRP | -0.185 |
| RRIRLRPPRLPRPRPRPKMAPRP | 0.259 |
